Reference: the nanobody polyreactivity screen of Harvey et al. (2022)

test: yeast display, Sf9 membrane polyspecificity reagent, FACS + sequencing; frameworks hold sequencing errors
Method in brief: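 A synthetic nanobody library was expressed on Saccharomyces cerevisiae BJ5465 by galactose induction for 36–48 hours. The library was stained for 1 hour at 4 °C with 10% biotinylated, detergent-solubilized Sf9 membrane reagent and enriched with streptavidin microbeads before FACS. Low and high (top ~1%) gates were set on anti-HA fluorescence for expression and streptavidin fluorescence for reagent binding, and each polyreactivity label reflects the gate of origin.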

Sequence	polyreactivity (PSR sort gate)
QVQLEDSGGGLVQAGGSLRLSCAASGFNFYYNAMGWYRKAPGKERELVAAISWSDGGTYYADSVKGRFTISRDNAKNTVYLQMNSLKPEDTAFYYCAADFRLRAYYPGYEYWGQGTQVTVSS	low polyreactivity
QVQLEDSGGGLVQAGGSLRLSCAASGFTILRYAMGWYRQAPGKERELVAAIDWYGGSTYYADSVKGRFTISRDNAKNTVFVQMNSLKPEDCAVYYCNARKINFPSRFNDWGQGTQVTVSS	low polyreactivity
QVQLEDSGGGLVQAGGSLRLSCAASGIIFPDYAMGWYRQAPGKQRELVADISFSAGSTYYADSVKGRFTISRDNAKNTVYLQMNSLKPEDTAVYYCNARPFLTVLYLFYGNNYDYWGQGTQVTVSS	low polyreactivity
QVQLEDSGGGLVQAGGSLRLSCAASGRTSVGYVMGWYRQAPGKERELVAAISASGGSTYYADSVKGRFTISRDNAKNTVYLQMNSLKPEDTAVYYCNAPVYVPYDYWGQGTQVTVSS	low polyreactivity
QVQLEDSGGGLVQAGGSLRLSCAASGSTFDNYAMGWYRQAPGKERELVAVITQSGGITFYADSVKGRFTISRDNAKNTVYLQMNSVKPEDTAVYYCNVELDRSWYYYWGQGTQVTVSS	low polyreactivity
QVQLEDSGGGLVQAGGSLRLSSPASGRIFGWYAMGWYRQAPGKERELVATISYSGASTYYADSVKGRFTISRDNAKNTVYLQMNSLKPEDTAVYYCAAVYHKNGCGDYSWGQGTQVTVSS	high polyreactivity
QVQLEESAGGLVQAGGSLRLICADSARILRQYARGWYRQAPGKERELVAAITSSGGSTYYADSVKGRFTISRDNEKNTVYLQMNSMKPEDTAVYYCNARLRGAKYDYWGQGTQVSVSS	high polyreactivity
QVQLEESAGGLVQAGGSLRLSCAASGRIFNYYAMGWYRQAPGKERELVATISSTGSSTYYADSVKGRFTISRDNAKNTVYLQMNSLKPEDTAVYYCAARYVRQYYRAEDYWGQGTQVTVSS	high polyreactivity
QVQLEESAGGLVQAGGSLRLSCAASGRSFNAYAMGWYRQAPGKERELVATISWRTGSTYYADSVKGRFTISRDNAKNTVYLQMNSLKPEDTAVYYCNAKVGSYGAQGYRFAYNYWGQGTQVTVSS	high polyreactivity
QVQLEESGGCLVQAGGSLRLSCAASGFTFRGYAMGWYSQAPGKERELVAAISKRGGSTYYADSVKGRFTISRDNAKNTVYLLMNSLKPADTAVYYCNADYYIVGPPYSPTREDYWGQGTQVTVSS	high polyreactivity
QVQLEESGGCLVQAGGSLRLSCAASGIIFWDNALGWYRQAPGKERELVASINYSGGSTYYADSVKGRFTNSRDNAKNTVYLQMNSLKPEDTAVYYCAARTVTLDDWDYAYDYWVQGTQVTVSS	low polyreactivity
QVQLEESGGCLVQAGGSLRLSCAASGRIITSNDMGWYRQAPGKERELVAAISKSGGRTYYADSVKGRFTISRDNAKNTVYLQMNSLKPEDTAVYYCAKDNYWGQGTQVTVSS	high polyreactivity
QVQLEESGGCLVQAGGSLRLSCAASGSIFRHNVMGWYRPAPGKERELVAAISGGGGRTYYADSVKGRFTISRDNAKNTVYLQMNSQKPEDTAVYYCNAVGPGLYQGDSTDSRYNYWGQGTQVTVSS	high polyreactivity
QVQLEESGGCLVQAGGSLRLSCAASGSIFRIYAMGWYRQAPGKEREFVAAISSRGGRTYYAYSVKGRFTISRDNAKNTVYLQMNSLKPEDTAVYYCNARATRGSYYEYEYWGQGTQVTVSS	high polyreactivity
QVQLEESGGCLVQAGGSLRLSCAASGSTFSNYAMGWYRLAPGKESELVAAISYSGARTDYADSVKGRFTISRDNAKHTVYFQMHSLKPEDTAVYYCAAQVLSRHANPYAYYYWGQGTQVTVSS	high polyreactivity
QVQLEESGGCLVQAGGSLRLSCAATGITFYLYAMGWYRHAPGKERELVAAINSGGSTSYADSVKGRFTISRDNAKNTVYLQMNSLKTEDTADYYCNKLFLKFWGHQYGYWGQGTQVTVSS	high polyreactivity

Sequence	polyreactivity (PSR sort gate)
QVQLEESGGGFVQAAGTLRLSCAPSGRIFLPYAMGWYRQAPGKEREFVAAITWGAGTTYYADSVKGRFTISRDNAKNTVYLQMNSLKPDDTAVYYCNARRRRAFSLYYYWGQGTQVTVSS	high polyreactivity
QVQLEESGGGFVQAGGCLRLSCAASGRIFYGYAMGWYRQAPGKERELVAAITRSSSTYYADSVKGRFTISRDNAKNTVYLQMNSQKPEDTAVYYCAAVMYATRPVYGFESWGLGTQVTVSS	high polyreactivity
QVQLEESGGGIVQAGGSLRLSCAASGSNYASNAMGWYRQAPRKERELVAAINSGDSTNYADSVKGRFTISRDNGKNTVYLQMNSLKTEDTAVYYCSRGLEERYDYWGQGTQVTVSS	low polyreactivity
QVQLEESGGGIVQAGGSLRLSCAASGSTFGVYAMGWYRQAPGKERELVAAISSSTGSTYYADSVKGRFTISRDNAKNTVYLQMNSLKPEYTAVYYCAAAGYGKVRGDYWGQGTQVTVSS	low polyreactivity
QVQLEESGGGLDQAGGSLRLSCAASGNIFYGNAMGWYIQAAGKERALVARISGTGRTNYADSVKGRFTISRDNAKNTVYLQMNSLKPEDTAVYYCAKYGYRSRYGYDYWGQGTQVTVTS	high polyreactivity
QVQLEESGGGLVHAGGSLPLSCAASGGTFYKYAMGSYRQAPGKERELVARISRCGSTYYADSVNGRFTISRDNAKNTVYLQMNSLKPEDTAVYYCAKRWFAGWPIVVPYNYWGQGTQVTVSS	high polyreactivity
QVQLEESGGGLVHAGGSLRLSCAASGSTFGYYTMGWYRQAPRKERELVAAITWSGGSTYYADSVKGRFTISLDNAKNTVYLQMNSLKPEDSAVYYCAADDYWTPFGYWGQGTQVTVSS	low polyreactivity
QVQLEESGGGLVLAGGSLRLSCAASGSTFYNYAKGCYREAPGKERELVAAITFTGGSTYYADSVKGRFTISRDNAKNTVYLQMNSLKPEDTAVYYCNRLGPLGDQQQYDYWGQGTQVTVSS	low polyreactivity
QVQLEESGGGLVQAGDSLRLSCDASGSTFPGYAMGWYRPAPGKERELVAAIYKRGGSTRYADSVKGRFTISRDNAKNTVYLQMNSLKPEDTAVYYCAASYSYSGSGGGYWGQGTQVTVSS	high polyreactivity
QVQLEESGGGLVQAGFSLRLSCAASGRIFVPNAMGWSRPAPGKEGELVAAIRWTGGSTYYADSVQGRFTISRDNAKNTVYLQMNSLKPEDTAVSYCAARYAARRLTYFWPQYARYDYWGQGTQVTVSS	high polyreactivity
QVQLEESGGGLVQAGGILRLSCAASGSIFIPNAMGWYRQAPGKERELVAAIRSGGSTYYADSVKGRFTISRDNAKNTVYLQMNSLKPEDTAVYYCAADTYTYYYYLARYYYWGQGTQVTVSS	low polyreactivity
QVQLEESGGGLVQAGGNLRLSSAASGSIFSFNAMGCYRQAPGKERELVAAISWRGASTYYADSVKGRFTISRDNAKNTVYLQMNSLKPEDTAVYYCAAESTFILQYSYIYYDGHYDYCGQGTQVTVSS	low polyreactivity
QVQLEESGGGLVQAGGRLRLSCAASGGTFRNNAMGWDRQAPGKEREVVAAISSSGTSTYYADSVKGRFTISRDNAKNTVYLQMNSLKPEDTAVYYCNADALGYPWWDHMDYWGQGTQVTVSS	low polyreactivity
QVQLEESGGGLVQAGGRLRLSCAASGRTFGRYAMGWDREPPGKERELVAAIRSGGSTYYADSVKGRLTISRDNAKNTVYFQMNSVKQADTAVYYCAADIARHLTGFAYYGLDYWGQGTQVTVSS	low polyreactivity
QVQLEESGGGLVQAGGRLRLSCAASGSIFDLNAMGRYRQAPGKERELVAAISQRGTRTYYADSVKGRFTISRDNAKNNVYLQMNSLIPEDTAVYYCAVGNGLSRYVYGDYEYWGQGTQVTVSS	high polyreactivity
